Test results reported in article PMC10204944, “Development and characterization of nanobodies that specifically target the oncogenic Phosphatase of Regenerating Liver-3 (PRL-3) and impact its interaction with a known binding partner, CNNM3” (PLOS ONE, 2023).
Residue numbers refer to the chain shown, from its start. Blank lines part the entries; values can stand above or below the binder they belong to.

Biological target: T1, recombinant PRL-3 (Phosphatase of Regenerating Liver-3) (Homo sapiens, UniProt O75365)
T1 construct: Phosphatase of Regenerating Liver-3 (PRL-3), human cDNA amplified with gene-specific primers and cloned into pSKB3 (NheI/XhoI); also called apo PRL-3; PTP4A family member; source: E. coli One-Shot BL21 Star DE3, purified (Ni-NTA, TEV cleavage, Superdex 200); not shown: 6XHis, N-terminal, cleaved
Assay: BLI; BLItz; nanobody (626.57 nM) loaded on Anti-Penta-HIS (HIS1K) biosensors; PRL-3 as analyte at six concentrations; association 5 min, dissociation 2 min; 1X kinetics buffer; global fit
Details: both partners purified

T1 sequence (O75365 1-169): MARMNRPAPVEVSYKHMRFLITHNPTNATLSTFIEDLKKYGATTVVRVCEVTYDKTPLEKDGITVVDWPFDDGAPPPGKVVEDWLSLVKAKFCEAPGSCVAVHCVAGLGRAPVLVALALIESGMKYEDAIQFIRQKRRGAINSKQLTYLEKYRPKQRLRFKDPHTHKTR

Kd: 202 nM
koff: 0.000565 s⁻¹
kon: 2750 M⁻¹ s⁻¹
B1: anti-PRL-3 nanobody 4 (VHH)
VHH: QVQLQESGGGLVQTGGSLRLSCAASQSTYNFDVMGWYRLAPGKQREFLTSITNGGNIYYADSVKGRFTIARDDSKTTMYLEMNSLKPEDTAVYTCYGQTHKPRVTTSWGQGTQVTVSS
notes: also called NB 4; source: E. coli One-Shot BL21 Star DE3 (pMES4), purified (Ni-NTA, Superdex 200); not shown: 6XHis, C-terminal, kept

Kd: 299 nM
koff: 0.000624 s⁻¹
kon: 2090 M⁻¹ s⁻¹
B2: anti-PRL-3 nanobody 16 (VHH)
VHH: B1 VHH with Y29F, I69T
notes: also called NB 16; source: E. coli One-Shot BL21 Star DE3 (pMES4), purified (Ni-NTA, Superdex 200); not shown: 6XHis, C-terminal, kept

Kd: 203 nM
koff: 0.00139 s⁻¹
kon: 6880 M⁻¹ s⁻¹
B3: anti-PRL-3 nanobody 91 (VHH)
VHH: B1 VHH with Y29F
notes: 91 is its standard; also called NB 91; nanobody 91-His; source: E. coli One-Shot BL21 Star DE3 (pMES4), purified (Ni-NTA, Superdex 200); not shown: 6XHis, C-terminal, kept

Kd: 98.4 nM
koff: 0.000386 s⁻¹
kon: 3920 M⁻¹ s⁻¹
B4: anti-PRL-3 nanobody 19 (VHH)
VHH: QVQLQESGGGLVQAGGSLGLSCAASRSIFNFKVMGWYRQAPGKQRELVASITNSDNTYYADSVKGRFTISREDAKTTMYLEMNSLKPEDTAVYRCYGQNWGLRATTYWGQGTQVTVSS
notes: also called NB 19; source: E. coli One-Shot BL21 Star DE3 (pMES4), purified (Ni-NTA, Superdex 200); not shown: 6XHis, C-terminal, kept

Kd: 101 nM
koff: 0.000332 s⁻¹
kon: 3280 M⁻¹ s⁻¹
B5: anti-PRL-3 nanobody 84 (VHH)
VHH: B4 VHH with A91T
notes: also called NB 84; source: E. coli One-Shot BL21 Star DE3 (pMES4), purified (Ni-NTA, Superdex 200); not shown: 6XHis, C-terminal, kept

Kd: 28.9 nM
koff: 0.000127 s⁻¹
kon: 4380 M⁻¹ s⁻¹
B6: anti-PRL-3 nanobody 26 (VHH)
VHH: QVQLQESGGGLVQPGGSLKLSCVVTGLHYYTEGWFRQAPGKEREGVSCISSSDGRTDYIDSVKGRFTISEDNDNKTVYLQMNTLKPDDTGVYYCVAERGPRGSTWWETYDYWGQGTHVTVSS
notes: also called NB 26; nanobody 26-His; source: E. coli One-Shot BL21 Star DE3 (pMES4), purified (Ni-NTA, Superdex 200); not shown: 6XHis, C-terminal, kept
